The results in this text go back to US8148141B2, “Peptide-immobilized substrate and method for measuring target protein” (HiPep Laboratories, priority 2001, dated 2012).

Ends that are not written are not given here. Rf = not defined here

The target of assay [1] is calmodulin (Homo sapiens, UniProt P0DP23). The experiment in a line: calmodulin measurement with immobilized fluorescent-labeled α-helix peptide chip. Type of assay: binding. Particulars: carboxyfluorescein peptide; exciting 490 nm, detection 520 nm; in the presence of calmodulin; 25° C., 5 minutes. Here is the method: As schematically shown in FIG. 3, calmodulin was measured using a peptide chip in which peptides having α-helix structure, each of which both termini were labeled with different fluorescent labels, were immobilized on a substrate. The procedures were carried out as follows:
The sequence of the core region of the peptides, which forms α-helix structure was designed by molecular modeling using a computer (molecular modeling using Insight II/Discover, Molecular Simulation, U.S.) based on the amino acid sequence of the peptide described in a reference (K. T. O'Neil and W. F. DeGrado, Trend Biochem Sci, 15, 59-64 (1990)). As a result, the amino acid sequence Leu-Lys-Lys-Leu-Leu-Lys-Leu-Leu-Lys-Lys-Leu-Leu-Lys-Leu (SEQ ID NO:1) was employed as the amino acid sequence of the core region. […]

In assay [2] the test system is amylase. The experiment in a line: amylase measurement with immobilized fluorescent-labeled β-loop peptide chip. Type of assay: binding. Particulars: carboxyfluorescein group; exciting 490 nm, detection 520 nm; amylase 1.0 μM, Tris buffer pH7.4, 150 mM NaCl; 25° C., 5 minutes. Here is the method:
As schematically shown in FIG. 4, amylase was measured using a peptide chip in which a peptide whose one terminus was labeled with a fluorescent label, which peptide has β-loop structure, was immobilized on a substrate. The procedures were carried out as follows:
As in Example 1, as schematically shown in FIG. 4, a peptide which forms β-loop structure was designed by molecular modeling using a computer based on the amino acid sequence of the peptide described in a reference (F. J. Blanco et al., Eur J Biochem 200, 345-351 (1991), S. Ono et al, Biosci Biotechnol Biochem, 62, 1621-1623 (1998)). As a result, as the amino acid sequence of the core region, the sequence Tyr-Gln-Ser-Trp-Arg-Tyr-Ser-Gln-Ala (SEQ ID NO: 5) was employed. The peptide having this sequence to which Cys residue as an anchor for immobilization was added to one terminus, and to which Lys residue having a fluorescent group Rf (fluorescent group such as carboxyfluorescein in FIG. 4) was added to another terminus, was synthesized. […] When carboxyfluorescein group was used, fluorescence measurement was performed employing exciting wavelength of 490 nm and detection wavelength of 520 nm. By adding an amylase solution (Tris buffer pH7.4, 150 mM NaCl, amylase concentration: 1.0 μM), about ten times increase of the fluorescence intensity was measured, so that the amylase was able to be detected and quantified. […]

“Lys(Rf3)-Leu-Lys-Lys-Leu-Leu-Lys-Leu-Leu-Lys-Lys-Leu-Leu-Lys-Leu-Cys-NH2 (K(carboxyfluorescein)LKKLLKLLKKLLKLC-NH2) [peptide containing carboxylfluorescein, Rf3 carboxyfluorescein group]”: the “increase of the fluorescence intensity” value in assay [1] is on record as “about ten”.
Turning to “Lys(Rf)-Tyr-Gln-Ser-Trp-Arg-Tyr-Ser-Gln-Ala-Cys-NH2 (K(Rf)YQSWRYSQAC-NH2; reading uncertain; also: printed as Lys(Rf)-Tyr-Gln-Ser-Trp-Arg-Tyr-Ser-Gln-Ala-Cys-NH2) [SEQ ID NO: 6, Rf fluorescent group such as carboxyfluorescein]”, in assay [2], the “increase of the fluorescence intensity” value is listed as “about ten”.
